# According to IntAct's records for PubMed 9299557:
# B1: Tumor necrosis factor alpha-induced protein 3 (Homo sapiens), P21580 (parent)
# chain: MAEQVLPQALYLSNMRKAVKIRERTPEDIFKPTNGIIHHFKTMHRYTLEMFRTCQFCPQFREIIHKALIDRNIQATLESQKKLNWCREVRKLVALKTNGDGNCLMHATSQYMWGVQDTDLVLRKALFSTLKETDTRNFKFRWQLESLKSQEFVETGLCYDTRNWNDEWDNLIKMASTDTPMARSGLQYNSLEEIHIFVLCNILRRPIIVISDKMLRSLESGSNFAPLKVGGIYLPLHWPAQECYRYPIVLGYDSHHFVPLVTLKDSGPEIRAVPLVNRDRGRFEDLKVHFLTDPENEMKEKLLKEYLMVIEIPVQGWDHGTTHLINAAKLDEANLPKEINLVDDYFELVQHEYKKWQENSEQGRREGHAQNPMEPSVPQLSLMDVKCETPNCPFFMSVNTQPLCHECSERRQKNQNKLPKLNSKPGPEGLPGMALGASRGEAYEPLAWNPEESTGGPHSAPPTAPSPFLFSETTAMKCRSPGCPFTLNVQHNGFCERCHNARQLHASHAPDHTRHLDPGKCQACLQDVTRTFNGICSTCFKRTTAEASSSLSTSLPPSCHQRSKSDPSRLVRSPSPHSCHRAGNDAPAGCLSQAARTPGDRTGTSKCRKAGCVYFGTPENKGFCTLCFIEYRENKHFAAASGKVSPTASRFQNTIPCLGRECGTLGSTMFEGYCQKCFIEAQNQRFHEAKRTEEQLRSSQRRDVPRTTQSTSRPKCARASCKNILACRSEELCMECQHPNQRMGPGAHRGEPAPEDPPKQRCRAPACDHFGNAKCNGYCNECFQFKQMYG
# partner: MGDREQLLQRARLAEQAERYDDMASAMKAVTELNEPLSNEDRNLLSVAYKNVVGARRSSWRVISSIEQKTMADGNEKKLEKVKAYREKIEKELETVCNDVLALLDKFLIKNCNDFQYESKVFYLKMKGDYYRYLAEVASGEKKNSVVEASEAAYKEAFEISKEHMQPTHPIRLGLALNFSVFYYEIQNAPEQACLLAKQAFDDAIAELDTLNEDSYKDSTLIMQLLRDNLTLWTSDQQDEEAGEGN
# B2: Tumor necrosis factor alpha-induced protein 3 (Homo sapiens), P21580 (parent)
# chain: B1 chain
# Variants of: B1
# Conditions: with 1433f_mouse Ywhah
row,Variant,effect of a mutation on the interaction
1,R562A,disrupting interaction
2,S565A,disrupting interaction

# Variants of: B2
# Conditions: with 1433z_mouse Ywhaz
row,Variant,effect of a mutation on the interaction
1,R562A,disrupting interaction
2,S565A,disrupting interaction
